Experimental data published in the supplement of paper PMC5998384.

Key:
HeLa Kyoto [1] = test: solubility in G1/S (NP-40 vs SDS abundance) (log2 ratio); higher = more soluble; conditions: cell cycle stage: G1/S
HeLa Kyoto [2] = test: melting temperature (median over replicates), in situ; higher = more thermally stable
HeLa Kyoto [3] = test: solubility change mitosis vs G1/S (difference of NP-40 vs SDS log2 ratios) (log2 ratio difference); higher = more soluble in mitosis
HeLa Kyoto [4] = test: thermal stability score vs G1/S (z-score of summed log2 fold changes over temperatures); higher = more thermally stable than in G1/S
[5] = cell cycle stage: early G1 (4.5 h after nocodazole release)
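For melting temperature (median over replicates), in situ in this document: HeLa Kyoto cells synchronized by double thymidine or nocodazole block, proteins quantified by TMT10plex mass spectrometry, three independent biological replicates.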
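For solubility change mitosis vs G1/S (difference of NP-40 vs SDS log2 ratios) in this document: synchronized HeLa Kyoto cells (double thymidine block for G1/S, nocodazole release for mitosis), protein amounts in NP-40 versus SDS lysates quantified by mass spectrometry, three biological replicates.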
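For solubility in G1/S (NP-40 vs SDS abundance) in this document: HeLa Kyoto cells arrested at G1/S by double thymidine block, proteins quantified by TMT10plex mass spectrometry in mild NP-40 versus SDS extracts, three biological replicates.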
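For thermal stability score vs G1/S (z-score of summed log2 fold changes over temperatures) in this document: synchronized HeLa Kyoto cells, proteins quantified by TMT10plex mass spectrometry, three biological replicates, mitosis taken 0.5 h after nocodazole release, G1/S directly after double thymidine block.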

Sequence | solubility in G1/S (log2) (HeLa Kyoto [1]) | melting temperature (HeLa Kyoto [2]; cell cycle stage: G1/S) [°C] | melting temperature (HeLa Kyoto [2]; cell cycle stage: mitosis) [°C] | solubility change mitosis (log2) (HeLa Kyoto [3]) | thermal stability score (HeLa Kyoto [4]; [5]) | thermal stability score (HeLa Kyoto [4]; cell cycle stage: mitosis)
MALSKSMHARNRYKDKPPDFAYLASKYPDFKQHVQINLNGRVSLNFKDPEAVRALTCTLLREDFGLSIDIPLERLIPTVPLRLNYIHWVEDLIGHQDSDKSTLRRGIDIGTGASCIYPLLGATLNGWYFLATEVDDMCFNYAKKNVEQNNLSDLIKVVKVPQKTLLMDALKEESEIIYDFCMCNPPFFANQLEAKGVNSRNPRRPPPSSVNTGGITEIMAEGGELEFVKRIIHDSLQLKKRLRWYSCMLGKKCSLAPLKEELRIQGVPKVTYTEFCQGRTMRWALAWSFYDDVTVPSPPSKRRKLEKPRKPITFVVLASVMKELSLKASPLRSETAEGIVVVTTWIEKILTDLKVQHKRVPCGKEEVSLFLTAIENSWIHLRRKKRERVRQLREVPRAPEDVIQALEEKKPTPKESGNSQELARGPQERTPCGPALREGEAAAVEGPCPSQESLSQEENPEPTEDERSEEKGGVEVLESCQGSSNGAQDQEASEQFGSPVAERGKRLPGVAGQYLFKCLINVKKEVDDALVEMHWVEGQNRDLMNQLCTYIRNQIFRLVAVN [METTL16] | 0.161 | 50.2 | 50.8 | -0.2 | 1.61 | 2.17
MEASWRQVAGGRGRSRGRATAAPSGNGVHLRGAGGGREKGSVGAVPSGTSPGGVATTAAAGSRHSPAGSQALQTTAASELMSQKKFEEIKKANQAAARKLVEEQFSSSSEEGDEDFEGKQGKILANTFITYTTQTDGDTRELERTKQYVNEAFQAGAMTCLICIASVKRNQAVWSCSGCFCIFHMPCIQKWAKDSQFLVSSVTDDDFGKKDCPWPCPKCRFEYKRSETPSRYYCYCGKVEDPPLDPWLVPHSCGQVCEREFKPPCGHKCLLLCHPGPCPPCPKMVTTTCYCKKAKPIPRRCSAKEWSCQLPCGQKLLCGQHKCENPCHAGSCQPCPRVSRQKCVCGKKVAERSCASPLWHCDQVCGKTLPCGNHTCEQVCHVGACGECPRSGKRFCPCQKSKFSLPCTEDVPTCGDSCDKVLECGIHRCSQRCHRGPCETCRQEVEKHCRCGKHTKRMPCHKPYLCETKCVKMRDCQKHQCRRKCCPGNCPPCDQNCGRTLGCRNHKCPSVCHRGSCYPCPETVDVKCNCGNTKVTVPCGRERTTRPPKCKEQCSRPPTCHHTSQEKHRCHFGSCPPCHQPCQKVLEKCGHLCPAPCHDQALIKQTGRHQPTGPWEQPSEPAFIQTALPCPPCQVPIPMECLGKHEVSPLPCHAVGPYSCKRVCGRILDCQNHTCMKECHKVTKTDGCTGKNKAGPECLHCEEGCSKSRPLGCLHPCILRCHPGECPPCVQMLRIKCHCKITSLYVECRKITTADVNEKNLLSCCKNQCPKELPCGHRCKEMCHPGECPFNCNQKVKLRCPCKRIKKELQCNKVRENQVSIECDTTCKEMKRKASEIKEAEAKAALEEEKRRQQAELEAFENRLKGRRKKNRKRDEVAVELSLWQKHKYYLISVCGVVVVVFAWYITHDVN [NFXL1] | -0.509 | 50.2 | 50.5 | 0.0441 | 1.02 | 1.56
MAAAGLVAVAAAAEYSGTVASGGNLPGVHCGPSSGAGPGFGPGSWSRSLDRALEEAAVTGVLSLSGRKLREFPRGAANHDLTDTTRADLSRNRLSEIPIEACHFVSLENLNLYQNCIRYIPEAILNLQALTFLNISRNQLSTLPVHLCNLPLKVLIASNNKLVSLPEEIGHLRHLMELDVSCNEIQTIPSQIGNLEALRDLNVRRNHLVHLPEELAELPLIRLDFSCNKITTIPVCYRNLRHLQTITLDNNPLQSPPAQICIKGKVHIFKYLNIQACKIAPDLPDYDRRPLGFGSCHEELYSSRPYGALDSGFNSVDSGDKRWSGNEPTDEFSDLPLRVAEITKEQRLRRESQYQENRGSLVVTNGGVEHDLDQIDYIDSCTAEEEEAEVRQPKGPDPDSLSSQFMAYIEQRRISHEGSPVKPVAIREFQKTEDMRRYLHQNRVPAEPSSLLSLSASHNQLSHTDLELHQRREQLVERTRREAQLAALQYEEEKIRTKQIQRDAVLDFVKQKASQSPQKQHPLLDGVDGECPFPSRRSQHTDDSALCMSLSGLNQVGCAATLPHSSAFTPLKSDDRPNALLSSPATETVHHSPAYSFPAAIQRNQPQRPESFLFRAGVRAETNKGHASPLPPSAAPTTDSTDSITGQNSRQREEELELIDQLRKHIEYRLKVSLPCDLGAALTDGVVLCHLANHVRPRSVPSIHVPSPAVPKLTMAKCRRNVENFLEACRKIGVPQEQLCLPLHILEEKGLSQVAVTVQALLELAPPKQQQHQLSAV [LRCH3] | 0.108 | 46.9 | 48.8 | -0.0597 | 0.000114 | 1.36
